From patent publication US20110110962A1 (INSERM INSTITUT NATIONAL DE LA SANT ET DE LA RECHERCHE M …, published 2011)

B1: FliCΔ204-292 (ligand)
chain: AQVINTNSLSLLTQNNLNKSQSALGTAIERLSSGLRINSAKDDAAGQAIANRFTANIKGLTQASRNANDGISIAQTTEGALNEINNNLQRVRELAVQSANSTNSQSDLDSIQAEITQRLNEIDRVSGQTQFNGVKVLAQDNTLTIQVGANDGETIDIDLKQINSQTLGLDTLNVQQKYKVSDTAATVTGYADTTIALDNSTFKAALTAAGVTGTASVVKMSYTDNNGKTIDGGLAVKVGDDYYSATQNKDGSISINTTKYTADDGTSKTALNKLGGADGKTEVVSIGGKTYAASKAEGHNFKAQPDLAEAAATTTENPLQKIDAALAQVDTLRSDLGAVQNRFNSAITNLGNTVNNLTSARSRIEDSDYATEVSNMSRAQILQQAGTSVLAQANQVPQNVLSLLR
B2: Salmonella enterica Serovar Typhimurium ATCC14028 flagellin FliC (ligand)
chain: AQVINTNSLSLLTQNNLNKSQSALGTAIERLSSGLRINSAKDDAAGQAIANRFTANIKGLTQASRNANDGISIAQTTEGALNEINNNLQRVRELAVQSANSTNSQSDLDSIQAEITQRLNEIDRVSGQTQFNGVKVLAQDNTLTIQVGANDGETIDIDLKQINSQTLGLDTLNVQQKYKVSDTAATVTGYADTTIALDNSTFKASATGLGGTDQKIDGDLKFDDTTGKYYAKVTVTGGTGKDGYYEVSVDKTNGEVTLAGGATSPLTGGLPATATEDVKNVQVANADLTEAKAALTAAGVTGTASVVKMSYTDNNGKTIDGGLAVKVGDDYYSATQNKDGSISINTTKYTADDGTSKTALNKLGGADGKTEVVSIGGKTYAASKAEGHNFKAQPDLAEAAATTTENPLQKIDAALAQVDTLRSDLGAVQNRFNSAITNLGNTVNNLTSARSRIEDSDYATEVSNMSRAQILQQAGTSVLAQANQVPQNVLSLLR
B3: FliCΔ191-352 (ligand)
chain: AQVINTNSLSLLTQNNLNKSQSALGTAIERLSSGLRINSAKDDAAGQAIANRFTANIKGLTQASRNANDGISIAQTTEGALNEINNNLQRVRELAVQSANSTNSQSDLDSIQAEITQRLNEIDRVSGQTQFNGVKVLAQDNTLTIQVGANDGETIDIDLKQINSQTLGLDTLNVQQKYKVSDTAATVTGYLELEDGTSKTALNKLGGADGKTEVVSIGGKTYAASKAEGHNFKAQPDLAEAAATTTENPLQKIDAALAQVDTLRSDLGAVQNRFNSAITNLGNTVNNLTSARSRIEDSDYATEVSNMSRAQILQQAGTSVLAQANQVPQSVLSLLR

What was measured:
TLR5 of mice (mouse) = TLR5 of mice (mouse) (UniProt Q9JLF7); assay: cell-based or functional assay
TLR5 of mice = TLR5 of mice (mouse, UniProt Q9JLF7 27-859); assay: cell-based or functional assay
Sequence of TLR5 of mice (Q9JLF7 27-859): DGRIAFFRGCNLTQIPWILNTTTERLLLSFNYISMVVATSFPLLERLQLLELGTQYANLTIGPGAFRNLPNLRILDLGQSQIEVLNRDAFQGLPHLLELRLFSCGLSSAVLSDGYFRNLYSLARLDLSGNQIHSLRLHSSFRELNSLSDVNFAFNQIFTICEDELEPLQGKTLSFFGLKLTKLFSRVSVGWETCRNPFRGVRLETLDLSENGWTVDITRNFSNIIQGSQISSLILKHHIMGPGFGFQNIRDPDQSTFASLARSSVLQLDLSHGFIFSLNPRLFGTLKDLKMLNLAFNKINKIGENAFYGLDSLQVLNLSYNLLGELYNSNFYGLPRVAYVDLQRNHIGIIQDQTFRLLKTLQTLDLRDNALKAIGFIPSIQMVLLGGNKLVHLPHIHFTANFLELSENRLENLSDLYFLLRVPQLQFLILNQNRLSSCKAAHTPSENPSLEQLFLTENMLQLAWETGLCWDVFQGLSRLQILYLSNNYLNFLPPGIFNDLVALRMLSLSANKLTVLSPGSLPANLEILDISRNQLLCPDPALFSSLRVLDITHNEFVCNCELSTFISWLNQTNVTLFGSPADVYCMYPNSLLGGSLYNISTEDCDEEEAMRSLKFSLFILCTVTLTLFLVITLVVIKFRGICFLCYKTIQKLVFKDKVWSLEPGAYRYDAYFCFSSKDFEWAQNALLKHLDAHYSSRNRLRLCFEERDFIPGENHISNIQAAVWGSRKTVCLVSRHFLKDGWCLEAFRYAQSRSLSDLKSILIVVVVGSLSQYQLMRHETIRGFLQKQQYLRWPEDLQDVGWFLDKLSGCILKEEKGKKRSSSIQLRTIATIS

Sequence of TLR5 of mice (mouse) (Q9JLF7 27-859): as above

Molecule	CCL20 mRNA pulmonary levels 2 h after i.n. instillation, against mock-treated animals (TLR5 of mice (mouse)) [fold]	serum CCL20 after 10 µg i.v. (TLR5 of mice (mouse)) [ng/mL]	systemic pro-inflammatory effects (serum CCL20 and CXCL2 after i.v. injection), against wild type FliC (TLR5 of mice (mouse)) [fold]	CCL20 mRNA pulmonary levels 2 h after i.n. instillation, against mock-treated animals (TLR5 of mice) [fold]
FliCΔ174-400 flagellin (from UniProt P06175 2-493) (ligand)	30	0.85	100	–
B1	–	–	–	~30
B2	–	–	–	~30
B3	–	–	–	~30
